Reference: patent US20210101970A1 (Pfizer, published 2021)

T1: human CXCR5 (human, UniProt P32302 1-372)
T1 construct: also called hCXCR5; C-X-C chemokine receptor type 5
T1 sequence: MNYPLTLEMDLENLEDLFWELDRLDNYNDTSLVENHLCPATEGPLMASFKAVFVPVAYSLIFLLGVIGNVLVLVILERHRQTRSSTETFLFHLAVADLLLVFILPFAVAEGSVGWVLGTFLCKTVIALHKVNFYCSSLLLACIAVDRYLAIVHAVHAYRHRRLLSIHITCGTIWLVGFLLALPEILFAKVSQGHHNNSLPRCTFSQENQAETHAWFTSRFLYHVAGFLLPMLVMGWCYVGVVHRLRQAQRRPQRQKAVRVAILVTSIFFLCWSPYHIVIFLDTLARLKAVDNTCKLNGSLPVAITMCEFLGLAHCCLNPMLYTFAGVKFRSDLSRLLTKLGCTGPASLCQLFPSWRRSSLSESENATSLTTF

T2: cynomolgus monkey CXCR5 (cynomolgus monkey, UniProt P32302 1-372 (human entry))
T2 construct: also called cynoCXCR5; NHP CXCR5
T2 chain: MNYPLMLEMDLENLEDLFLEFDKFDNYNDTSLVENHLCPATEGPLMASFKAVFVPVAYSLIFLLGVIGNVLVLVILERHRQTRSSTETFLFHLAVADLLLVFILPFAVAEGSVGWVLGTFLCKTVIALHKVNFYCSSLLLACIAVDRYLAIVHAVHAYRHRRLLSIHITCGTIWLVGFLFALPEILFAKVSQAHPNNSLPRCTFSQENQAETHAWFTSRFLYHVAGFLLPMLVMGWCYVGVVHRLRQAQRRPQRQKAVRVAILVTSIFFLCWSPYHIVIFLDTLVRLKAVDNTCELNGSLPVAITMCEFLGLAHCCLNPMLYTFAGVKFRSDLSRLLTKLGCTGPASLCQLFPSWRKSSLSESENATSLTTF


Assays:
human CXCR5 [1] = target: T1, human CXCR5; experiment: flow cytometry, human PBMC B cells
Procedure: (§1) The apparent affinity for cell surface CXCR5 of chimeric and humanized CXCR5 fucosylated and afucosylated antibodies was assessed. More specifically, to determine the apparent affinity of chimeric and humanized CXCR5 antibodies to CXCR5-expressing cells, cell binding experiments were performed on human and cynomolgus monkey peripheral blood mononuclear cells (PBMCs) and human tonsillar mononuclear cells (TMCs). The apparent affinity of CXCR5 mab binding to CXCR5+ cells (B cells, bona fide Tfh cells, and circulating Tfh-like cells) was calculated as the EC50 of equilibrium binding titration curves in which the geometric mean fluorescence intensity (gMFI) of the antigen binding population was quantified by flow cytometry.
(§2) Following isolation, PBMCs were plated at a density of 1.0×10⁵ cells per well and CD4+ TMCs were plated at a density of 2.0×10⁵ cells per well in isolation buffer (PBS containing 1% FBS and 1 mM EDTA) in 96 well U-bottom plates. The plates were then centrifuged at 1500 rpm for 5 minutes at room temperature. PBMCs and CD4+ TMCs were resuspended in Fluorescence-activated cell sorting (FACS) buffer (PBS containing 1% FBS) containing human crystallized fragment Fc block (2 μL per well; Biolegend) and 4-fold serial dilutions of the antibodies (11-point dilution series, beginning at 5000 ng/mL for PBMCs and 312.5 ng/mL for CD4+ TMCs) and incubated on ice for 2 hours. PBMCs and CD4+ TMCs were then washed with FACS buffer 3 times and resuspended in 50-100 μL of FACs buffer containing fluorescent-conjugated antibodies for staining lymphocyte subsets and a fluorescent-conjugated secondary antibody against human Ig to detect CXCR5 monoclonal antibodies (mAbs). After incubation for 30 minutes at 4° C., PBMCs and CD4+ TMCs were washed with FACS buffer 2 times and resuspended in 125 μL of 0.5% paraformaldehyde (PFA) in PBS. Plates were stored at 4° C. until analysis by flow cytometry (BD LSRFortessa™ Cell Analyzer, BD Biosciences, Franklin Lakes, N.J.).
(§3) The cell binding titration curves were generated by plotting the gMFI of the antigen binding population against the log of CXCR5 antibody concentration. EC₅₀ values were determined using GraphPad Prism® (version 6.0, GraphPad Software, Inc, San Diego, Calif.) nonlinear-regression curve fits and a sigmoidal log of agonist dose-response model, according to the following equation

human CXCR5 [2] = target: T1, human CXCR5; experiment: cell-based or functional assay
cynomolgus monkey CXCR5 [3] = target: T2, cynomolgus monkey CXCR5; experiment: flow cytometry, cynomolgus PBMC B cells
Procedure: as §1, §2, §3

cynomolgus monkey CXCR5 [4] = target: T2, cynomolgus monkey CXCR5; experiment: cell-based or functional assay
human CXCR5 [5] = target: T1, human CXCR5; experiment: flow cytometry, human tonsil Tfh cells
Procedure: Following centrifugation, red blood cell lysis was performed on the pellet using an ammonium chloride lysis buffer. Platelets were removed using a low speed centrifugation (200×g) for 10 minutes in Phosphate-Buffered Saline (PBS)/2% FBS/2 mM Ethylenediaminetetraacetic acid (EDTA). CD4+ T cells were purified out of the TMC mixture using an EasySep™ Human CD4+ T Cell Enrichment Kit, according to the manufacturer's instructions ([…] Technologies, Vancouver, BC, Canada).
as §2, §3

human CXCR5 [6] = target: T1, human CXCR5; experiment: cell-based or functional assay; remark: listed apart in the source
human CXCR5 [7] = target: T1, human CXCR5; experiment: flow cytometry on Raji cells, gMFI titration
Procedure: The apparent affinity of antibody binding to Raji cells was calculated as the EC₅₀ of equilibrium binding titration curves in which the geometric mean fluorescence intensity (gMFI) of the antigen binding population was quantified by flow cytometry and the results are shown in Table 2.

Binder	EC50 (human CXCR5 [1]) [pM]	ADCC Activity Average EC50, Human B Cells (human CXCR5 [2]) [pM]	EC50 (cynomolgus monkey CXCR5 [3]) [pM]	ADCC Activity Average EC50, NHP B Cells (cynomolgus monkey CXCR5 [4]) [pM]	EC50 (human CXCR5 [5]) [pM]	Ca2+ flux IC50 (human CXCR5 [6]) [pM]	EC50 (human CXCR5 [7]) [pM]	ADCC Activity Average EC50, Human Tfh Cells (human CXCR5 [2]) [pM]
Humanized 41A10 142/147 (antibody, human IgG1, V domains shown, also called h41A10 VH (XC147)/VL (XC142)) VH: EVQLVESGGGLVQPGGSLRLSCAASGFTFRSYGMSWVRQAPGKGLEWVATISSGGTYTFYPDILKGRITISRDNAKNSLYLQMNSLRAEDTAVYYCARRGEDYRGALEHWGQGTLVTVSS VL: DIQMTQSPSSLSASVGDRVTITCSASSSVNYIHWYQQKPGKAPKRLIYETSRLASGVPSRFSGSGSGTDYTLTISSLQPEDFATYYCQQWSSNPLTFGQGTKVEIK	153	1240	2050	–	–	–	–	–
Humanized 11G2 153/156 (antibody, human IgG1, V domains shown, also called h11G2 VH (XC156)/VL (XC153)) VH: EVQLVESGGGLVQPGGSLRLSCATSGFTFTDFYMSWVRQAPGKGLEWVGFIRNKANGYTTEYSASVKGRFTISRDNAKNSLYLQMNSLRAEDTAVYYCVRVYGSTLHYWGQGTLVTVSS VL: DIQMTQSPSSLSASVGDRVTITCRASESVEYHGTSLMHWYQQKPGKAPKLLIYAASNVESGVPSRFSGSGSGTDFTLTISSLQPEDFATYFCQQSRKVPWTFGQGTKVEIK	8.88	568	7.06	28.1	3.23	–	–	–
mouse 41A10 (antibody, V domains shown, mouse hybridoma mAb; also called 41A10 (hybridoma)) VH: EVQLVESGGDLVKPGGSLKLSCAASGFTFRSYGMSWVRQTPDKRLEWVATISSGGTYTFYPDILKGRITISRDNAKNTLYLQMSNLKSEDTAMYYCARRGEDYRGALEHWGQGTSVTVSS VL: QIVLTQSPAVMSASPGEKVTMTCSASSSVNYIHWYQQKSGTSPKRWIYETSRLASGVPVRFSGSGSGTSYSLTISTMEAEDAATYYCQQWSSNPLTFGAGTKLELK	–	–	–	–	–	14700	805	–
mouse 11G2 (antibody, V domains shown, mouse hybridoma mAb; also called 11G2 (hybridoma)) VH: EVKLVESGGGLVQPGGSLRLSCATSGFTFTDFYMSWVRQPPGRALEWLGFIRNKANGYTTEYSASVKGRFTISRDNSQSILYLQMNTLRAGDSATYYCVRVYGSTLHYWGQGTILTVSS VL: DVVVTQSPDSLAVSLGQRATISCRASESVEYHGTSLMHWYQQKPGQPPKLLIYAASNVESGVPARFSGSGSGTDFSLNIHPVEEGDIAMYFCQQSRKVPWTFGGGTKLEIK	–	–	–	–	–	5930	968	–
mouse 5H7 (antibody, V domains shown, mouse hybridoma mAb; also called 5H7 (hybridoma)) VH: EVKLVESGGGLVQPGDSLRLSCATSGFTFTDFYMSWVRQPPGRALEWLGFIRNKANGYTTEYSASVKGRFTISRDNSQSILYLQMNTLRAGDSATYYCVRVYGSTLHYWGQGTILTVSS VL: DVVVTQSPDSLAVSLGQRATISCRASESVEYHGTSLMHWYQQKPGQPPKLLIYAASNVESGVPARFSGSGSGTDFSLNIHPVEEGDVSMFFCQQSRKVPWTFGGGTKLEIK	–	–	–	–	–	5560	1010	–

Other lines, results leading:

EC50 (human CXCR5 [1]) [pM]	ADCC Activity Average EC50, Human B Cells (human CXCR5 [2]) [pM]	EC50 (cynomolgus monkey CXCR5 [3]) [pM]	ADCC Activity Average EC50, NHP B Cells (cynomolgus monkey CXCR5 [4]) [pM]	EC50 (human CXCR5 [5]) [pM]	Ca2+ flux IC50 (human CXCR5 [6]) [pM]	EC50 (human CXCR5 [7]) [pM]	ADCC Activity Average EC50, Human Tfh Cells (human CXCR5 [2]) [pM]	Binder
152	1110	1960	–	–	–	–	–	Humanized 41A10 142/148 (antibody, human IgG1, V domains shown, also called h41A10 VH (XC148)/VL (XC142)) VH: EVQLVESGGGLVQPGGSLRLSCAASGFTFRSYGMSWVRQAPGKGLEWVATISSGGTYTFYPDILKGRFTISRDNAKNSLYLQMNSLRAEDTAVYYCARRGEDYRGALEHWGQGTLVTVSS VL: DIQMTQSPSSLSASVGDRVTITCSASSSVNYIHWYQQKPGKAPKRLIYETSRLASGVPSRFSGSGSGTDYTLTISSLQPEDFATYYCQQWSSNPLTFGQGTKVEIK
13.1	377	10.1	43.6	3.33	–	–	–	Humanized 11G2 151/152 (antibody, human IgG1, V domains shown, also called h11G2 VH (XC152)/VL (XC151)) VH: EVQLVESGGGLVKPGGSLRLSCAASGFTFTDFYMSWVRQAPGKGLEWLGFIRNKANGYTTEYSAPVKGRFTISRDDSKNTLYLQMNSLKTEDTAVYYCVRVYGSTLHYWGQGTLVTVSS VL: DIQMTQSPSSLSASVGDRVTITCRASESVEYHGTSLMHWYQQKPGKAPKLLIYAASNVESGVPSRFSGSGSGTDFTLTISSLQPEDFATYYCQQSRKVPWTFGQGTKVEIK
19.1	517	8.65	54	7.24	–	–	–	Humanized 11G2 154/157 (antibody, human IgG1, V domains shown, also called h11G2 VH (XC157)/VL (XC154)) VH: EVQLVESGGGLVQPGGSLRLSCATSGFTFTDFYMSWVRQAPGKGLEWVGFIRNKANGYTTEYSASVKGRFTISRDNAKSSLYLQMNSLRAEDTAVYYCVRVYGSTLHYWGQGTLVTVSS VL: DIQMTQSPSSLSASVGDRVTITCRASESVEYHGTSLMHWYQQKPGKAPKLLIYAASNVESGVPSRFSGSGSGTDFTLTISSLQPEDFATYYCQQSRKVPWTFGQGTKVEIK
7.79	463	7.03	20.7	4.82	–	–	–	Humanized 11G2 153/155 (antibody, human IgG1, V domains shown, also called h11G2 VH (XC155)/VL (XC153)) VH: EVQLVESGGGLVQPGGSLRLSCAASGFTFTDFYMSWVRQAPGKGLEWVGFIRNKANGYTTEYSASVKGRFTISRDNAKNSLYLQMNSLRAEDTAVYYCARVYGSTLHYWGQGTLVTVSS VL: DIQMTQSPSSLSASVGDRVTITCRASESVEYHGTSLMHWYQQKPGKAPKLLIYAASNVESGVPSRFSGSGSGTDFTLTISSLQPEDFATYFCQQSRKVPWTFGQGTKVEIK
–	54.5	–	–	–	–	–	–	Afucosyl Chimeric 41A10 (antibody, human IgG1, kappa, V domains shown, afucosylated Fc glycan (Asn297)) VH: EVQLVESGGDLVKPGGSLKLSCAASGFTFRSYGMSWVRQTPDKRLEWVATISSGGTYTFYPDILKGRITISRDNAKNTLYLQMSNLKSEDTAMYYCARRGEDYRGALEHWGQGTSVTVSS VL: QIVLTQSPAVMSASPGEKVTMTCSASSSVNYIHWYQQKSGTSPKRWIYETSRLASGVPVRFSGSGSGTSYSLTISTMEAEDAATYYCQQWSSNPLTFGAGTKLELKR
8.09	4.39	–	–	45.6	–	–	0.07	Afucosyl Chimeric 11G2 (antibody, human IgG1, kappa, V domains shown, afucosylated Fc glycan (Asn297), made in Potelligent CHOK1SV cells) VH: EVKLVESGGGLVQPGGSLRLSCATSGFTFTDFYMSWVRQPPGRALEWLGFIRNKANGYTTEYSASVKGRFTISRDNSQSILYLQMNTLRAGDSATYYCVRVYGSTLHYWGQGTILTVSS VL: DVVVTQSPDSLAVSLGQRATISCRASESVEYHGTSLMHWYQQKPGQPPKLLIYAASNVESGVPARFSGSGSGTDFSLNIHPVEEGDIAMYFCQQSRKVPWTFGGGTKLEIKR
